From patent US20200247894A1 (Regeneron, published 2020)

Legend:
[1] = target: T1, human IL2Rγ (endogenously expressed on cells) (human, UniProt P31785 23-369); experiment: cell-based or functional assay
T1 sequence (looked up): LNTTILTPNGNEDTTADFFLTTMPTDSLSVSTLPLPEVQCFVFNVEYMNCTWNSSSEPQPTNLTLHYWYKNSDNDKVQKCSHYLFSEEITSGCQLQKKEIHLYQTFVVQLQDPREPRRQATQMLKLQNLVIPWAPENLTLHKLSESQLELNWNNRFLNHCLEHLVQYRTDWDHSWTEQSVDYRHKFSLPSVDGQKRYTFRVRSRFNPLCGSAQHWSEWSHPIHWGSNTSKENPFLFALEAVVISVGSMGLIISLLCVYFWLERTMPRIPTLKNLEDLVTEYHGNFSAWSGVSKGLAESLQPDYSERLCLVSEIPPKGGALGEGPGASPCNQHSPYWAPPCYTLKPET

[2] = target: T2, D1 domain of human IL-2Rγ extracellular domain expressed with a C-terminal myc-myc-hexahistidine tag (human); experiment: SPR, mAb captured on anti-hFc, 25 C
T2 construct: also called human IL2Rγ domain 1
T2 chain: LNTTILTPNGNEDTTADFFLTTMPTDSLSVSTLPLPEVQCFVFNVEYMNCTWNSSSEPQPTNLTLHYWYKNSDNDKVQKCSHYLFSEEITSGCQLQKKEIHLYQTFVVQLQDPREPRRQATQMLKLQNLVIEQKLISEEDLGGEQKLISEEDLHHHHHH
In short: (§1)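 Surface plasmon resonance with anti-hFc-captured antibodies in pH 7.4 HEPES-buffered saline containing EDTA and Tween-20; kinetic constants from a 1:1 model.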

[3] = target: T3, D2 domain of human IL2Rγ extracellular domain expressed with a C-terminal myc-myc-hexahistidine tag (human); experiment: SPR, mAb captured on anti-hFc, 25 C; 25 C
T3 construct: also called human IL2Rγ domain 2
T3 chain: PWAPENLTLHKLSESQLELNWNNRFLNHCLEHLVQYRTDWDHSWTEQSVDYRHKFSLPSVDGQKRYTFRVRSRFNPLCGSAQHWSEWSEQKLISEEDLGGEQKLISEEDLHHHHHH
Experimental: (§2) Equilibrium dissociation constants (KD values) for IL-2Rγ binding to purified anti-IL2Rγ monoclonal antibodies were determined using a Biacore 4000 instrument equipped with a real-time surface plasmon resonance biosensor. All binding studies were performed in 10 mM HEPES, 150 mM NaCl, 3 mM EDTA, and 0.05% v/v Surfactant Tween-20, pH 7.4 (HBS-ET) running buffer at 25° C. and 37° C. The Biacore sensor surface was first derivatized by amine coupling with a monoclonal mouse anti-human Fc antibody (GE, # BR-1008-39) to capture anti-IL2Rγ monoclonal antibodies.

[4] = target: T2, D1 domain of human IL-2Rγ extracellular …; experiment: SPR, mAb captured on anti-hFc, 37 C
In short: as §1

[5] = target: T4, Mouse IL2Rγ extracellular domain expressed with a C-terminal myc-myc-hexahistidine tag (mouse); experiment: SPR Biacore 4000, anti-hFc-captured mAb, 37 C
T4 construct: whole entry is the tagged construct; also called mIL-2Rg-MMH
T4 chain: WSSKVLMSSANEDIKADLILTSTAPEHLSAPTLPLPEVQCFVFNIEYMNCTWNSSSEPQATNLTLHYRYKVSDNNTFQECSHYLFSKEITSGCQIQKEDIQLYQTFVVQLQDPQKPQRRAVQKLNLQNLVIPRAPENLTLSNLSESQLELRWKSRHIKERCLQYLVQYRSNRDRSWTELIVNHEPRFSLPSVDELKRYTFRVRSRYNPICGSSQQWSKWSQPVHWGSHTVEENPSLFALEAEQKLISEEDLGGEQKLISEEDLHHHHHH
In short: as §1

[6] = target: T5, Macaca fascicularis IL2Rγ extracellular domain expressed with a C-terminal myc-myc-hexahistidine tag (Macaca fascicularis); experiment: SPR Biacore 4000, anti-hFc-captured mAb, 37 C
T5 construct: whole entry is the tagged construct; also called mfIL-2Rg-MMH
T5 chain: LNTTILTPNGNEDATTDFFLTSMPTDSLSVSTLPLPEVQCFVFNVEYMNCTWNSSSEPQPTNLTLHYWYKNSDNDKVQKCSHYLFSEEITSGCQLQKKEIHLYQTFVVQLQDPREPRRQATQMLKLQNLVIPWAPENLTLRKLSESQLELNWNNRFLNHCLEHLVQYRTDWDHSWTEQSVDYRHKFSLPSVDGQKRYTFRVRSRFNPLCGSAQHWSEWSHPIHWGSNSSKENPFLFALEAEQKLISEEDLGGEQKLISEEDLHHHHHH
In short: as §1

[7] = target: T6, Rat IL2Rγ extracellular domain expressed with a C-terminal myc-myc-hexahistidine tag (rat); experiment: SPR Biacore 4000, anti-hFc-captured mAb, 37 C
T6 construct: whole entry is the tagged construct; also called rIL-2Rg-MMH; rat IL-2Rg-MMH
T6 chain: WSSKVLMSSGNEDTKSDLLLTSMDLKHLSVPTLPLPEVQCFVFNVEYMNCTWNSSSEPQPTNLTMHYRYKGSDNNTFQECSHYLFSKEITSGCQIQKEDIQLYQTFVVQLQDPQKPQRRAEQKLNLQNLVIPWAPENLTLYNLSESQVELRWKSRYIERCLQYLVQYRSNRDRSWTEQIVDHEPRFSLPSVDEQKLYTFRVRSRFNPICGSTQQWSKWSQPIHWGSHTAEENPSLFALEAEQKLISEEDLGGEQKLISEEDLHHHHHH
In short: as §1

[8] = target: T7, Human IL2Rγ extracellular domain expressed with a C-terminal mouse IgG2a Fc tag (human); experiment: SPR Biacore 4000, anti-hFc-captured mAb, 37 C
T7 construct: whole entry is the Fc-fused construct; also called hIL-2Rg-mFc
T7 chain: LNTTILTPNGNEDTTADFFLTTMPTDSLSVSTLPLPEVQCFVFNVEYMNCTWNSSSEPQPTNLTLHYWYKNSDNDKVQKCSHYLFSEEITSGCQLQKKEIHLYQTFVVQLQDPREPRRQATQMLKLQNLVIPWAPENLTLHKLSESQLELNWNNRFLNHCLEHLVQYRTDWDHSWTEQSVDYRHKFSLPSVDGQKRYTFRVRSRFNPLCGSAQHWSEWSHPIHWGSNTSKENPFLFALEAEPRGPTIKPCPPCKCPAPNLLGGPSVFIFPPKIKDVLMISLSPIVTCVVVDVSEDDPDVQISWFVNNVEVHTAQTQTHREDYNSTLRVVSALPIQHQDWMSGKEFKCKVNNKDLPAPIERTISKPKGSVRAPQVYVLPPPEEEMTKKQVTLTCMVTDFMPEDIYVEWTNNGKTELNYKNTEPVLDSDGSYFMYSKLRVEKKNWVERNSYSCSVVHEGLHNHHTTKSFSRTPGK
In short: as §1

[9] = target: T4, Mouse IL2Rγ extracellular domain …; experiment: SPR Biacore 4000, anti-hFc-captured mAb, 25 C
In short: as §1

[10] = target: T6, Rat IL2Rγ extracellular domain …; experiment: SPR Biacore 4000, anti-hFc-captured mAb, 25 C
In short: as §1

[11] = target: T7, Human IL2Rγ extracellular domain …; experiment: SPR Biacore 4000, anti-hFc-captured mAb, 25 C
In short: as §1

[12] = target: T7, Human IL2Rγ extracellular domain …; experiment: SPR Biacore 4000, anti-hFc-captured mAb, 37 C; no dissociation observed, kd manually fixed at 1.00E-05
[13] = target: T7, Human IL2Rγ extracellular domain …; experiment: SPR Biacore 4000, anti-hFc-captured mAb, 37 C; computed with kd fixed at 1.00E-05
Experimental: as §2
The dissociation of monoclonal antibody bound IL2Rγ reagents were monitored for 8-10 minutes in HBS-ET running buffer. Kinetic association (kₐ) and dissociation (kd) rate constants were determined by fitting the real-time sensorgrams to a 1:1 binding model using Scrubber 2.0c curve fitting software. Binding dissociation equilibrium constants (KD) and dissociative half-lives (t_{1/2}) were calculated from the kinetic rate constants as: […]

B1: H4H12927P2 (antibody, human IgG4 S228P, kappa, V domains shown)
VH: EVQLVESGGGVVRPGGSLRLSCATSGFTFDDYGMSWVRQVPGKGLEWVSSVNRNGGTTDYADSVKGRFTISRDNAKRSLFLQMNSLRAEDTALYHCATGELFFDYWGQGTLVTVSS
VL: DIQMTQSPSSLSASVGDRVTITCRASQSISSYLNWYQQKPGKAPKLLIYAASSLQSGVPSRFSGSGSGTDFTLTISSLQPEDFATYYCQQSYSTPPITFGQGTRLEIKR
notes: human IgG4
**Q.** Which “IC50; IL-7 50 pM; NK92/hIL7R/STAT3-luc” value [1] does the source give for B1 here?
**A.** > 1e-07 M

**Q.** And the “Max Inhibition (%); IL-2 30 pM; NK92/hIL7R/STAT3-luc” value [1]?
**A.** 18%

**Q.** What about the “Max Inhibition (%); IL-4 250 pM; Ramos.2G6.4C10/STAT3-luc” value [1] of the same binder?
**A.** 33%

**Q.** What about the “Max Inhibition (%); IL-7 50 pM; NK92/hIL7R/STAT3-luc” value [1] of the same binder?
**A.** 46%

**Q.** What about the “Max Inhibition (%); IL-15 60 pM; NK92/hIL7R/STAT3-luc” value [1] of the same binder?
**A.** 34%

**Q.** What about the “100 nM Ag Bound” value [2] of the same binder?
**A.** 0 RU

**Q.** Does B1 bind [2]?
**A.** no binding (tested: 100 nM)

**Q.** And the Kd [3]?
**A.** 69.9 nM

**Q.** And the koff [3]?
**A.** 0.0166 s⁻¹

**Q.** What about the kon [3] of the same binder?
**A.** 238000 M⁻¹ s⁻¹

**Q.** What about the t½ [3] of the same binder?
**A.** 0.7 min

**Q.** What about the “100 nM Ag Bound” value [4] of the same binder?
**A.** 1 RU

B2: H4H12863P (antibody, human IgG4 S228P, kappa, V domains shown)
VH: QVQLVESGGGVVQPGRSLRLSCTASGFTFRSYDMYWVRQAPGKGLEWVSVITYDGNNKYYADSVKGRFTISRDNSKNTLFLQMSSLRPEDTAVYYCAKRGLIWVGESFDYWGQGTLVTVSS
VL: DIQMTQSPSTLSASVGDRVTITCRASQSINSWLAWYQQKPGKAPNLLIYKASSLESGVPSRFSGSGSGTEFTLTISSLQPDDFATYYCQQYKSYSWTFGQGTKVEIKR
notes: fully human anti-IL2Rgamma mAb, human IgG4 Fc
**Q.** How did the “100 nM Ag Bound” value [5] turn out when B2 was run?
**A.** 0 RU

**Q.** What about the “100 nM Ag Bound” value [6] of the same binder?
**A.** 63 RU

**Q.** And the Kd [6]?
**A.** 5.51 nM

**Q.** And the koff [6]?
**A.** 0.00147 s⁻¹

**Q.** What about the kon [6] of the same binder?
**A.** 266000 M⁻¹ s⁻¹

**Q.** And the t1/2 [6]?
**A.** 8 min

**Q.** What about the “100 nM Ag Bound” value [7] of the same binder?
**A.** 0 RU

**Q.** What about the “50 nM Ag Bound” value [8] of the same binder?
**A.** 93 RU

**Q.** What about the kon [8] of the same binder?
**A.** 537000 M⁻¹ s⁻¹

**Q.** What about the “100 nM Ag Bound” value [9] of the same binder?
**A.** 2 RU

**Q.** Does B2 bind [9]?
**A.** no binding (tested: 100 nM)

**Q.** And the “100 nM Ag Bound” value [10]?
**A.** 1 RU

**Q.** Does B2 bind [10]?
**A.** no binding (tested: 100 nM)

**Q.** What about the “50 nM Ag Bound” value [11] of the same binder?
**A.** 115 RU

**Q.** And the Kd [11]?
**A.** 0.0853 nM

**Q.** And the koff [11]?
**A.** 3.41e-05 s⁻¹

**Q.** What about the kon [11] of the same binder?
**A.** 399000 M⁻¹ s⁻¹

**Q.** What about the t1/2 [11] of the same binder?
**A.** 339 min

**Q.** What about the koff [12] of the same binder?
**A.** ≤ 1e-05 s⁻¹

**Q.** And the Kd [13]?
**A.** ≤ 0.0186 nM

**Q.** What about the t1/2 [13] of the same binder?
**A.** ≥ 1160 min
